B1: Y365F (protein)
chain: MQLRNPELHLGCALALRFLALVSWDIPGARALDNGLARTPTMGWLHWERFMCNLDCQEEPDSCISEKLFMEMAELMVSEGWKDAGYEYLCIDDCWMAPQRDSEGRLQADPQRFPHGIRQLANYVHSKGLKLGIYADVGNKTCAGFPGSFGYYDIDAQTFADWGVDLLKFDGCYCDSLENLADGYKHMSLALNRTGRSIVYSCEWPLYMWPFQKPNYTEIRQYCNHWRNFADIDDSWKSIKSILDWTSFNQERIVDVAGPGGWNDPDMLVIGNFGLSWNQQVTQMALWAIMAAPLFMSNDLRHISPQAKALLQDKDVIAINQDPLGKQGYQLRQGDNFEVWERPLSGLAWAVAMINRQEIGGPRSFTIAVASLGKGVACNPACFITQLLPVKRKLGFYEWTSRLRSHINPTGTVLLQLENTMQMSLKDLL
B2: Y365S (protein)
chain: MQLRNPELHLGCALALRFLALVSWDIPGARALDNGLARTPTMGWLHWERFMCNLDCQEEPDSCISEKLFMEMAELMVSEGWKDAGYEYLCIDDCWMAPQRDSEGRLQADPQRFPHGIRQLANYVHSKGLKLGIYADVGNKTCAGFPGSFGYYDIDAQTFADWGVDLLKFDGCYCDSLENLADGYKHMSLALNRTGRSIVYSCEWPLYMWPFQKPNYTEIRQYCNHWRNFADIDDSWKSIKSILDWTSFNQERIVDVAGPGGWNDPDMLVIGNFGLSWNQQVTQMALWAIMAAPLFMSNDLRHISPQAKALLQDKDVIAINQDPLGKQGYQLRQGDNFEVWERPLSGLAWAVAMINRQEIGGPRSSTIAVASLGKGVACNPACFITQLLPVKRKLGFYEWTSRLRSHINPTGTVLLQLENTMQMSLKDLL
B3: Y365N (protein)
chain: MQLRNPELHLGCALALRFLALVSWDIPGARALDNGLARTPTMGWLHWERFMCNLDCQEEPDSCISEKLFMEMAELMVSEGWKDAGYEYLCIDDCWMAPQRDSEGRLQADPQRFPHGIRQLANYVHSKGLKLGIYADVGNKTCAGFPGSFGYYDIDAQTFADWGVDLLKFDGCYCDSLENLADGYKHMSLALNRTGRSIVYSCEWPLYMWPFQKPNYTEIRQYCNHWRNFADIDDSWKSIKSILDWTSFNQERIVDVAGPGGWNDPDMLVIGNFGLSWNQQVTQMALWAIMAAPLFMSNDLRHISPQAKALLQDKDVIAINQDPLGKQGYQLRQGDNFEVWERPLSGLAWAVAMINRQEIGGPRSNTIAVASLGKGVACNPACFITQLLPVKRKLGFYEWTSRLRSHINPTGTVLLQLENTMQMSLKDLL
B4: T366S (protein)
chain: MQLRNPELHLGCALALRFLALVSWDIPGARALDNGLARTPTMGWLHWERFMCNLDCQEEPDSCISEKLFMEMAELMVSEGWKDAGYEYLCIDDCWMAPQRDSEGRLQADPQRFPHGIRQLANYVHSKGLKLGIYADVGNKTCAGFPGSFGYYDIDAQTFADWGVDLLKFDGCYCDSLENLADGYKHMSLALNRTGRSIVYSCEWPLYMWPFQKPNYTEIRQYCNHWRNFADIDDSWKSIKSILDWTSFNQERIVDVAGPGGWNDPDMLVIGNFGLSWNQQVTQMALWAIMAAPLFMSNDLRHISPQAKALLQDKDVIAINQDPLGKQGYQLRQGDNFEVWERPLSGLAWAVAMINRQEIGGPRSYSIAVASLGKGVACNPACFITQLLPVKRKLGFYEWTSRLRSHINPTGTVLLQLENTMQMSLKDLL
B5: I367F (protein)
chain: MQLRNPELHLGCALALRFLALVSWDIPGARALDNGLARTPTMGWLHWERFMCNLDCQEEPDSCISEKLFMEMAELMVSEGWKDAGYEYLCIDDCWMAPQRDSEGRLQADPQRFPHGIRQLANYVHSKGLKLGIYADVGNKTCAGFPGSFGYYDIDAQTFADWGVDLLKFDGCYCDSLENLADGYKHMSLALNRTGRSIVYSCEWPLYMWPFQKPNYTEIRQYCNHWRNFADIDDSWKSIKSILDWTSFNQERIVDVAGPGGWNDPDMLVIGNFGLSWNQQVTQMALWAIMAAPLFMSNDLRHISPQAKALLQDKDVIAINQDPLGKQGYQLRQGDNFEVWERPLSGLAWAVAMINRQEIGGPRSYTFAVASLGKGVACNPACFITQLLPVKRKLGFYEWTSRLRSHINPTGTVLLQLENTMQMSLKDLL
B6: T366N (protein)
chain: MQLRNPELHLGCALALRFLALVSWDIPGARALDNGLARTPTMGWLHWERFMCNLDCQEEPDSCISEKLFMEMAELMVSEGWKDAGYEYLCIDDCWMAPQRDSEGRLQADPQRFPHGIRQLANYVHSKGLKLGIYADVGNKTCAGFPGSFGYYDIDAQTFADWGVDLLKFDGCYCDSLENLADGYKHMSLALNRTGRSIVYSCEWPLYMWPFQKPNYTEIRQYCNHWRNFADIDDSWKSIKSILDWTSFNQERIVDVAGPGGWNDPDMLVIGNFGLSWNQQVTQMALWAIMAAPLFMSNDLRHISPQAKALLQDKDVIAINQDPLGKQGYQLRQGDNFEVWERPLSGLAWAVAMINRQEIGGPRSYNIAVASLGKGVACNPACFITQLLPVKRKLGFYEWTSRLRSHINPTGTVLLQLENTMQMSLKDLL
B7: T366I (protein)
chain: MQLRNPELHLGCALALRFLALVSWDIPGARALDNGLARTPTMGWLHWERFMCNLDCQEEPDSCISEKLFMEMAELMVSEGWKDAGYEYLCIDDCWMAPQRDSEGRLQADPQRFPHGIRQLANYVHSKGLKLGIYADVGNKTCAGFPGSFGYYDIDAQTFADWGVDLLKFDGCYCDSLENLADGYKHMSLALNRTGRSIVYSCEWPLYMWPFQKPNYTEIRQYCNHWRNFADIDDSWKSIKSILDWTSFNQERIVDVAGPGGWNDPDMLVIGNFGLSWNQQVTQMALWAIMAAPLFMSNDLRHISPQAKALLQDKDVIAINQDPLGKQGYQLRQGDNFEVWERPLSGLAWAVAMINRQEIGGPRSYIIAVASLGKGVACNPACFITQLLPVKRKLGFYEWTSRLRSHINPTGTVLLQLENTMQMSLKDLL
B8: I367L (protein)
chain: MQLRNPELHLGCALALRFLALVSWDIPGARALDNGLARTPTMGWLHWERFMCNLDCQEEPDSCISEKLFMEMAELMVSEGWKDAGYEYLCIDDCWMAPQRDSEGRLQADPQRFPHGIRQLANYVHSKGLKLGIYADVGNKTCAGFPGSFGYYDIDAQTFADWGVDLLKFDGCYCDSLENLADGYKHMSLALNRTGRSIVYSCEWPLYMWPFQKPNYTEIRQYCNHWRNFADIDDSWKSIKSILDWTSFNQERIVDVAGPGGWNDPDMLVIGNFGLSWNQQVTQMALWAIMAAPLFMSNDLRHISPQAKALLQDKDVIAINQDPLGKQGYQLRQGDNFEVWERPLSGLAWAVAMINRQEIGGPRSYTLAVASLGKGVACNPACFITQLLPVKRKLGFYEWTSRLRSHINPTGTVLLQLENTMQMSLKDLL
B9: T366P (protein)
chain: MQLRNPELHLGCALALRFLALVSWDIPGARALDNGLARTPTMGWLHWERFMCNLDCQEEPDSCISEKLFMEMAELMVSEGWKDAGYEYLCIDDCWMAPQRDSEGRLQADPQRFPHGIRQLANYVHSKGLKLGIYADVGNKTCAGFPGSFGYYDIDAQTFADWGVDLLKFDGCYCDSLENLADGYKHMSLALNRTGRSIVYSCEWPLYMWPFQKPNYTEIRQYCNHWRNFADIDDSWKSIKSILDWTSFNQERIVDVAGPGGWNDPDMLVIGNFGLSWNQQVTQMALWAIMAAPLFMSNDLRHISPQAKALLQDKDVIAINQDPLGKQGYQLRQGDNFEVWERPLSGLAWAVAMINRQEIGGPRSYPIAVASLGKGVACNPACFITQLLPVKRKLGFYEWTSRLRSHINPTGTVLLQLENTMQMSLKDLL

System: mutant form of α-Gal A expressed in HEK-293 cells
Assay: HEK assay (GLP HEK / Migalastat Amenability Assay): α-Gal A activity in lysates of transiently transfected HEK-293 cells incubated with or without 10 μM migalastat
Assay type: cell-based, human
Settings: for Absolute increase (% WT) / Relative increase: 10 μM migalastat versus baseline; for Baseline α-Gal A activity (% WT): absence of migalastat; for Baseline α-Gal A activity (% WT) / 10 μM migalastat α-Gal A activity (% WT): percentage of baseline wild-type α-Gal A activity; for Baseline α-Gal A activity (% WT) / Baseline α-Gal A activity / 10 μM migalastat α-Gal A activity / 10 μM migalastat α-Gal A activity (% WT): mean ± SEM; for Baseline α-Gal A activity / 10 μM migalastat α-Gal A activity: lysates of HEK-293 cells transiently transfected with the mutant form; for Baseline α-Gal A activity: incubated 5 days in absence of migalastat; for 10 μM migalastat α-Gal A activity: incubated 5 days with 10 μM migalastat; for 10 μM migalastat α-Gal A activity (% WT): with 10 μM migalastat, 5 days
Method in brief: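 Activity reported as 4-MU released (nmol/mg/hr), mean±SEM, from lysates of transiently transfected HEK-293 cells expressing mutant α-Gal A, cultured with or without 10 μM migalastat.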

Row | Molecule | Absolute increase (% WT) | Relative increase | Baseline α-Gal A activity (% WT) | Baseline α-Gal A activity | 10 μM migalastat α-Gal A activity | 10 μM migalastat α-Gal A activity (% WT)
1 | B1 | 21.1 % WT | 1.3 | 67.7 ± 5.1 % WT | 19631 ± 2010 nmol/mg/h | 25395 ± 2160 nmol/mg/h | 88.8 ± 5.3 % WT
2 | B2 | 18.4 % WT | 1.4 | 49.4 ± 4.1 % WT | 14346 ± 1563 nmol/mg/h | 19484 ± 1899 nmol/mg/h | 67.8 ± 4.9 % WT
3 | B3 | 22.5 % WT | 1.4 | 59.7 ± 1.7 % WT | 19111 ± 869 nmol/mg/h | 26514 ± 1978 nmol/mg/h | 82.2 ± 4.5 % WT
4 | B4 | 16.2 % WT | 1.2 | 70.6 ± 4.9 % WT | 20731 ± 2170 nmol/mg/h | 24885 ± 1760 nmol/mg/h | 86.7 ± 3.6 % WT
5 | B5 | 21.6 % WT | 1.4 | 48.3 ± 3.7 % WT | 15728 ± 1680 nmol/mg/h | 22178 ± 1794 nmol/mg/h | 69.9 ± 5.7 % WT
6 | B6 | 20.4 % WT | 1.3 | 78.1 ± 5.3 % WT | 24650 ± 1756 nmol/mg/h | 30947 ± 1867 nmol/mg/h | 98.5 ± 5.4 % WT
7 | B7 | 20.0 % WT | 1.3 | 57.8 ± 2.5 % WT | 18539 ± 1165 nmol/mg/h | 24814 ± 1897 nmol/mg/h | 77.8 ± 5.3 % WT
8 | B8 | 21.9 % WT | 1.2 | 79 ± 4 % WT | 25211 ± 1640 nmol/mg/h | 31257 ± 2256 nmol/mg/h | 101 ± 9.3 % WT
9 | B9 | 13.4 % WT | 1.3 | 46.2 ± 4 % WT | 13407 ± 1462 nmol/mg/h | 16910 ± 1608 nmol/mg/h | 59.5 ± 5.1 % WT

Reference: patent publication US11833164B2, “Methods of treating Fabry disease in patients having a mutation in the GLA gene” (Amicus Therapeutics, Inc., priority 2019, dated 2023)
